Results as given in patent publication US10662235B2, “Cysteine engineered fibronectin type III domain binding molecules” (Janssen Biotech, Inc., priority 2016, dated 2020).

B1: E53C (protein)
chain: MLPAPKNLVVSEVTEDSARLSWDDPWAFYESFLIQYQESEKVGEAIVLTVPGSCRSYDLTGLKPGTEYTVSIYGVHNVYKDTNMRGLPLSAIFTT
modifications: EGFR binding FN3 domain
B2: P114AR5P74-A5: c-Met-binding FN3 domain, SEQ ID NO: 32 (protein)
chain: LPAPKNLVVSRVTEDSARLSWTAPDAAFDSFWIRYDEVVVGGEAIVLTVPGSERSYDLTGLKPGTEYYVNILGVKGGSISVPLSAIFTT
modifications: c-Met binding FN3 domain
B3: P114AR7P92-F6: c-Met-binding FN3 domain, SEQ ID NO: 35 (protein)
chain: LPAPKNLVVSRVTEDSARLSWTAPDAAFDSFWIRYFEFLGSGEAIVLTVPGSERSYDLTGLKPGTEYVVNILGVKGGGLSVPLSAIFTT
modifications: c-Met binding FN3 domain
B4: N6C (protein)
chain: LPAPKCLVVSEVTEDSARLSWDDPWAFYESFLIQYQESEKVGEAIVLTVPGSERSYDLTGLKPGTEYTVSIYGVHNVYKDTNMRGLPLSAIFTT
B5: S10C (protein)
chain 1: MLPAPKNLVVCEVTEDSARLSWDDPWAFYESFLIQYQESEKVGEAIVLTVPGSERSYDLTGLKPGTEYTVSIYGVHNVYKDTNMRGLPLSAIFTT
chain 2: LPAPKNLVVCEVTEDSARLSWDDPWAFYESFLIQYQESEKVGEAIVLTVPGSERSYDLTGLKPGTEYTVSIYGVHNVYKDTNMRGLPLSAIFTT
modifications: EGFR binding FN3 domain; EGFR-binding FN3 domain
B6: V8C (protein)
chain 1: MLPAPKNLCVSEVTEDSARLSWDDPWAFYESFLIQYQESEKVGEAIVLTVPGSERSYDLTGLKPGTEYTVSIYGVHNVYKDTNMRGLPLSAIFTT
chain 2: LPAPKNLCVSEVTEDSARLSWDDPWAFYESFLIQYQESEKVGEAIVLTVPGSERSYDLTGLKPGTEYTVSIYGVHNVYKDTNMRGLPLSAIFTT
modifications: EGFR binding FN3 domain; EGFR-binding FN3 domain
B7: S38C (protein)
chain 1: MLPAPKNLVVSEVTEDSARLSWDDPWAFYESFLIQYQECEKVGEAIVLTVPGSERSYDLTGLKPGTEYTVSIYGVHNVYKDTNMRGLPLSAIFTT
chain 2: LPAPKNLVVSEVTEDSARLSWDDPWAFYESFLIQYQECEKVGEAIVLTVPGSERSYDLTGLKPGTEYTVSIYGVHNVYKDTNMRGLPLSAIFTT
modifications: EGFR binding FN3 domain; EGFR-binding FN3 domain
B8: S20C (protein)
chain 1: MLPAPKNLVVSEVTEDSARLCWDDPWAFYESFLIQYQESEKVGEAIVLTVPGSERSYDLTGLKPGTEYTVSIYGVHNVYKDTNMRGLPLSAIFTT
chain 2: LPAPKNLVVSEVTEDSARLCWDDPWAFYESFLIQYQESEKVGEAIVLTVPGSERSYDLTGLKPGTEYTVSIYGVHNVYKDTNMRGLPLSAIFTT
modifications: EGFR binding FN3 domain; EGFR-binding FN3 domain
B9: R54C (protein)
chain 1: MLPAPKNLVVSEVTEDSARLSWDDPWAFYESFLIQYQESEKVGEAIVLTVPGSECSYDLTGLKPGTEYTVSIYGVHNVYKDTNMRGLPLSAIFTT
chain 2: LPAPKNLVVSEVTEDSARLSWDDPWAFYESFLIQYQESEKVGEAIVLTVPGSECSYDLTGLKPGTEYTVSIYGVHNVYKDTNMRGLPLSAIFTT
modifications: EGFR binding FN3 domain; EGFR-binding FN3 domain
B10: S30C (protein)
chain 1: MLPAPKNLVVSEVTEDSARLSWDDPWAFYECFLIQYQESEKVGEAIVLTVPGSERSYDLTGLKPGTEYTVSIYGVHNVYKDTNMRGLPLSAIFTT
chain 2: LPAPKNLVVSEVTEDSARLSWDDPWAFYECFLIQYQESEKVGEAIVLTVPGSERSYDLTGLKPGTEYTVSIYGVHNVYKDTNMRGLPLSAIFTT
modifications: EGFR binding FN3 domain; EGFR-binding FN3 domain
B11: S16C (protein)
chain 1: MLPAPKNLVVSEVTEDCARLSWDDPWAFYESFLIQYQESEKVGEAIVLTVPGSERSYDLTGLKPGTEYTVSIYGVHNVYKDTNMRGLPLSAIFTT
chain 2: LPAPKNLVVSEVTEDCARLSWDDPWAFYESFLIQYQESEKVGEAIVLTVPGSERSYDLTGLKPGTEYTVSIYGVHNVYKDTNMRGLPLSAIFTT
modifications: EGFR binding FN3 domain; EGFR-binding FN3 domain
B12: V41C (protein)
chain 1: MLPAPKNLVVSEVTEDSARLSWDDPWAFYESFLIQYQESEKCGEAIVLTVPGSERSYDLTGLKPGTEYTVSIYGVHNVYKDTNMRGLPLSAIFTT
chain 2: LPAPKNLVVSEVTEDSARLSWDDPWAFYESFLIQYQESEKCGEAIVLTVPGSERSYDLTGLKPGTEYTVSIYGVHNVYKDTNMRGLPLSAIFTT
modifications: EGFR binding FN3 domain; EGFR-binding FN3 domain
B13: T93C (protein)
chain 1: MLPAPKNLVVSEVTEDSARLSWDDPWAFYESFLIQYQESEKVGEAIVLTVPGSERSYDLTGLKPGTEYTVSIYGVHNVYKDTNMRGLPLSAIFCT
chain 2: LPAPKNLVVSEVTEDSARLSWDDPWAFYESFLIQYQESEKVGEAIVLTVPGSERSYDLTGLKPGTEYTVSIYGVHNVYKDTNMRGLPLSAIFCT
modifications: EGFR binding FN3 domain; EGFR-binding FN3 domain
B14: T48C (protein)
chain 1: MLPAPKNLVVSEVTEDSARLSWDDPWAFYESFLIQYQESEKVGEAIVLCVPGSERSYDLTGLKPGTEYTVSIYGVHNVYKDTNMRGLPLSAIFTT
chain 2: LPAPKNLVVSEVTEDSARLSWDDPWAFYESFLIQYQESEKVGEAIVLCVPGSERSYDLTGLKPGTEYTVSIYGVHNVYKDTNMRGLPLSAIFTT
modifications: EGFR binding FN3 domain; EGFR-binding FN3 domain

Experiments:
H1573 cells = assay: Cytotoxicity assay of cytotoxin conjugates in H1573 cells; format: cell-based, human; settings: MMAF conjugates; for IC50: Cell TiterGlo at 70 hours, read-out: IC50 (cell killing)
Procedure: Cell killing was assessed by measuring viability of the EGFR-overexpressing human tumor cell line H1573 following exposure to the cysteine variant-cytotoxin conjugates. […] Cells were allowed to attach overnight at 37° C. in a humidified 5% CO2 atmosphere. Medium was aspirated from 96-well plate and cells were treated with 50 uL of fresh media and 50 uL of 2× inhibitor made up in fresh media. Cell viability was determined by an endpoint assay with Cell TiterGlo (Promega) at 70 hours. IC50 values were determined by fitting data to the equation for a sigmoidal dose response with variable slope using GraphPad Prism 5 (GraphPad Software).
Conjugates consisting of ECB147 cysteine variants, 83v2-cys, or Tencon-cys linked to a cytotoxic tubulin inhibitor from the auristatin family (FIG. 2) were tested for target-dependent cytotoxicity in cancer cells. The inhibitor was linked to the cysteine-containing protein via a non-cleavable PEG4 linker or an enzyme-cleavable valine-citrulline or valine-lysine linker.

[1] = Thermal stability by differential scanning calorimetry; format: physicochemical; settings: for Thermal Stability (Tm, C.): c-Met-binding FN3 domains, DSC in PBS; for First Scan Tm / Second Scan Tm: cysteine-NEM conjugates; for First Scan Tm: DSC 25-100° C., 1° C. per minute; for Second Scan Tm: second identical scan
Procedure: The thermal stability of cysteine-NEM conjugates was assessed by differential scanning calorimetry (DSC). The only the conjugates tested were those determined to express at high levels, conjugate efficiently, and retain EGFR binding. Additionally, cysteine variants within the BC and FG loops were excluded. Stability data was generated by heating a 400 μL aliquot of the variant from 25° C. to 100° C. at a scan rate of 1° C. per minute in a VP-DSC instrument (MicroCal). A second identical scan was completed on the sample in order to assess the reversibility of thermal folding/unfolding. Data was fitted to a 2-state unfolding model in order to calculate the melting temperature (Table 10).
Thermal Stability of c-Met-Binding FN3 Domains Differential scanning calorimetry in PBS was used to assess the stability of each FN3 domain.

[2] = Analytical size exclusion chromatography (aggregation state, percent monomer); format: physicochemical; settings: NEM-conjugated cysteine variants; SEC, Abs280
Procedure: Size exclusion chromatography was used to determine the aggregation state of the FN3 domains binding EGFR. Aliquots (10 μL) of each purified FN3 domain were injected onto a Superdex 75 5/150 column (GE Healthcare) at a flow rate of 0.3 mL/min in a mobile phase of PBS pH 7.4. Elution from the column was monitored by absorbance at 280 nm.
The percent monomer for each protein was determined by integrating the Abs280 signal and comparing the peak in the monomer region (5.5-6 minutes) to the peaks in the oligomer region (4-5.3 minutes).

| Molecule | IC50 relative to parent conjugate (H1573 cells) | Thermal Stability (Tm, C.) [1] | Percent monomer [2] | IC50 (H1573 cells) | First Scan Tm [1] | Second Scan Tm [1] |
| --- | --- | --- | --- | --- | --- | --- |
| B1 | over two times more potent than the parent | – | – | – | – | – |
| B2 | – | 74.1 C. | – | – | – | – |
| B3 | – | 76.8 C. | – | – | – | – |
| B4 | over two times more potent than the parent | – | 94% | 0.16 nM | 71 °C | 70 °C |
| B5 | – | – | 80% | 0.43 nM | 68 °C | 68 °C |
| B6 | – | – | 91% | 0.35 nM | 69 °C | 69 °C |
| B7 | – | – | 93% | 0.76 nM | 65 °C | 65 °C |
| B8 | – | – | 94% | 0.36 nM | 70 °C | 70 °C |
| B9 | – | – | 96% | 0.37 nM | 65 °C | 65 °C |
| B10 | – | – | 94% | 0.78 nM | 71 °C | 71 °C |
| B11 | – | – | 75% | 0.75 nM | 68 °C | 68 °C |
| B12 | – | – | 98% | 1.13 nM | 71 °C | 71 °C |
| B13 | over two times more potent than the parent | – | 100% | 0.2 nM | 69 °C | 69 °C |
| B14 | – | – | 90% | 0.59 nM | 72 °C | 72 °C |
